Key:
protein G-agarose beads = protein G-agarose beads (UniProt P06654); test: mock depletion of FSGS plasma with protein G-agarose beads only, R&D ELISA
[1] = target: suPAR in human plasma from FSGS patients (human) (UniProt Q03405); test: immunodepletion of FSGS plasma, remaining suPAR measured by R&D ELISA
Chain of suPAR in human plasma from FSGS patients (human) (Q03405 23-305 limits assumed): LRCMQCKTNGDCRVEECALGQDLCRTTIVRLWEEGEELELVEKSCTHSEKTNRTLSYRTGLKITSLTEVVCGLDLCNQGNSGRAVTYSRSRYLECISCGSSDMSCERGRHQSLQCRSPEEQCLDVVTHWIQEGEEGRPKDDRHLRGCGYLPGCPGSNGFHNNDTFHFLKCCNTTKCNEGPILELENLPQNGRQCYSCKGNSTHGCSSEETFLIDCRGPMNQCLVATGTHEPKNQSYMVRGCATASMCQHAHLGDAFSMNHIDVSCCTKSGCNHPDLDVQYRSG

Chain of suPAR in human plasma from FSGS patients (Q03405 23-305 limits assumed): as above

percent lowering of suPAR level in plasma (protein G-agarose beads) [%]	percent of suPAR removed from human plasma [1] [%]	Substance
20 to 50	–	suPAR in human plasma from FSGS patients (from UniProt Q03405 23-305) (receptor)
–	> 99	mouse monoclonal anti-suPAR antibody ATN615
